# Measured values as given in article PMC10600506, “A potent and broad‐spectrum neutralizing nanobody for SARS‐CoV‐2 viruses, including all major Omicron strains” (MedComm, 2023).
# Molecular target: T1, SARS-CoV-2 Omicron BA.1 Spike receptor-binding domain (SARS-CoV-2 Omicron BA.1, strain, biotin on the Avi tag (for phage screening and BLI); not biotinylated for crystallisation)
# T1 construct: Spike glycoprotein of SARS-CoV-2, Omicron BA.1, RBD1 (319-514) domain; also called RBD1; BA.1 RBD; not shown: Avi-tag, C-terminal, kept
# Assay: BLI; biotinylated monovalent, […]; 25°C; 20 mM HEPES pH 7.4, 150 mM NaCl, 10 mg/mL BSA
# Settings: both partners purified
binder,measurement,value
"Nb4 (VHH, also called Nb4 monomer; monomeric Nb4) VHH: AVQLQASGGGFVQPGGSLRLSCAASGWAETFGHMGWFRQAPGKEREFVSAIDWWDTVHYYADSVKGRFTISRDNSKNTVYLQMNSLRAEDTATYYCAYWDMDYLQNSIPVDYWGQGTQVTVSS",Kd,~8 nM
